For this series, the system named is LexA (Escherichia coli). Description: EMSA.

The Kd is the concentration at which binding is half-saturated. Read a high Kd as a looser complex.

Where only a bound is given, the exact number is not on record here.

YNN1-LexO naked DNA: the dissociation constant (Kd) is under 5 nM.

(Values after paper PMC13440416.)
